According to article PMC7875332:

Molecular target: ACE2 receptor on Vero E6 cells (African green monkey (endogenous in Vero E6))
Experiment: flow cytometry on cells; HIS-tagged S protein incubated with 1.5 × 10^5 Vero E6 cells (ACE2+), 37°C for 1 hour, in 1% BSA in PBS with 0.02% sodium azide; detected with FITC-labeled anti-HIS Ab

## recombinant SARS-CoV-2 S protein, fused with a HIS tag at the C terminus (from UniProt P0DTC2) (natural protein)
  concentration at binding saturation: 200 nM
